Drawing on PMC5416870, “Lee Hyunah 1 2”, this text covers Kd for 4 molecules.

One may read the Kd as the free concentration of one partner at which half of the binding sites on the other are occupied at equilibrium, for simple one-to-one binding.

For the data set, the target named is SOX (alkaline exonuclease) (Kaposi's sarcoma-associated herpesvirus …, UniProt P88925 1-486). Briefly: fluorescence polarization anisotropy; FPA with 3'FAM oligonucleotides, single site binding fit (GraphPad PRISM6); buffer, pH and temperature as in cited Bagneris et al., not in material. To be noted: protein: recombinant.

B1: dsUN51 (dsRNA)
RNA 1: GGCCAUCCUGUUUUUUUCCCUUUUUUUUUUUCUUUUUUUUUUUUUUUUUUU
RNA 2: AAAAAAAAAAAAAAAAAAAAAAGAAAAAAAAAAAGGGAAAAAAACUGGAUGGCC
Consider B1, for which the Kd (label: 3'FAM (strand 1), duplex, as printed has one U-U mismatch and second strand about 3 nt longer (5' overhang)) is around 73 µM.
GAUCUGAGCCAUUGAAGCAAGCUUCCAGAUC (structured_RNA) [K2-31]: for the setting “label: 3'FAM, hairpin”, the Kd was 49 µM.

B2: HBB58 (structured_RNA)
RNA: AGGUGAAGGCUCAUGGCAAGAAAGUGCUCGGUGCCUUUAGUGAUGGCCUGGCUCACCU
In the case of B2, the Kd (label: 3'FAM, bulge) was 42 µM.

B3: GFP51 (structured_RNA)
RNA: UACGGCAAGCUGACCCUGAAGUUCAUCUGCACCACCGGCAAGCUGCCCGUG
For the molecule B3, under “label: 3'FAM, stem loop with UGAAG motif”, the Kd stood at 5 µM.
